The source of these data is patent US20200199216A1 (KINDRED BIOSCIENCES, published 2020).

One experiment addresses T1, equine IL17A-polyHis (equine, biotinylated in the biosensor assay).
T1 construct: not shown: poly-His tag on the C-terminal
T1 chain: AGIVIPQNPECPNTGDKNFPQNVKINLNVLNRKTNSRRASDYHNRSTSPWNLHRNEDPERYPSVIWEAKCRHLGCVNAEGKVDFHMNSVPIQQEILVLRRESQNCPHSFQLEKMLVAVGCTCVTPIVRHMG
Nature of the experiment: BLI (Octet); biotinylated equine IL17A-polyHis on streptavidin sensors, antibody 20 µg/mL; BLI (Octet), biotinylated equine IL17A-polyHis on streptavidin sensor, antibody 20 µg/mL. How it is done:
The binding analysis was performed using a Biosensor Octet as follows. Both feline IL17A-polyHis and equine IL17A-polyHis were biotinylated and immobilized to streptavidin biosensors. The association of monoclonal antibody Clones A, C, D, and E (20 μg/mL) to either feline or […] IL17A-polyHis was monitored for 90 seconds. Dissociation was monitored for 600 seconds. A buffer only blank curve was subtracted to correct for any drift. The data were fit to a 1:1 binding model using ForteBio™ data analysis software to determine the kₒₙ, koff, and the Kd. The buffer for dilutions and all binding steps was: 20 mM phosphate, 150 mM NaCl, pH 7.2. […] Weak binding signals of Clone A to feline IL17A and Clone C to feline IL17A were observed.
Background: In BLI a coated tip is dipped into the sample, and binding shifts an interference pattern.

Experiment [1] addresses T2, canine IL17A (as used at 1 nM in the H1080 cell assay) (canine).
T2 chain: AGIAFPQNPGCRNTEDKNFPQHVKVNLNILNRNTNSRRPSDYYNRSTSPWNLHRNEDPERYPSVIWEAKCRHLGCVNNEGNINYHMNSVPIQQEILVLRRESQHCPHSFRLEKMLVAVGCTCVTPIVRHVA
Nature of the experiment: cell-based or functional assay.

The next experiment concerns the target T3, canine IL17A-polyHis (canine, biotinylated (EZ-Link NHS-LC-biotin) in the biosensor assays).
T3 construct: also called biotinylated canine IL17A-polyHis; not shown: poly-His tag on the C-terminal
T3 chain: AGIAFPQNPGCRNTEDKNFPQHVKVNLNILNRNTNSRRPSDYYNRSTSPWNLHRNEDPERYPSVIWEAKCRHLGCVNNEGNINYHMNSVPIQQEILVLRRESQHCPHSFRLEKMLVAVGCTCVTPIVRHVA
Put plainly: BLI (Octet); biotinylated canine IL17A-polyHis on streptavidin sensors, antibody 0-220 nM, 1:1 model. How it is done:
The binding analysis was performed using a Biosensor Octet as follows. Briefly, canine IL17A-polyHis, which was expressed and purified from CHO-S cells, was biotinylated using EZ-Link NHS-LC-biotin (Catalog No. 21336, Thermo Scientific). Free, unreacted biotin was removed from biotinylated IL17A by dialysis. Biotinylated canine IL17A was captured on streptavidin sensor tips (Catalog No. 18-509, ForteBio). The association of different concentrations (0 nM, 18.33 nM, 45.87 nM, 110 nM, 220 nM) of hybridoma Clone C or caninized Clone C antibody to canine IL17A was monitored for 90 seconds. Dissociation was monitored for 600 seconds. A buffer only blank curve was subtracted to correct for any drift. The data were fit to a 1:1 binding model using ForteBio™ data analysis software to determine the kₒₙ, koff, and the Kd. The buffer for dilutions and all binding steps was: 20 mM phosphate, 150 mM NaCl, pH 7.2.

Experiment [2] deals with T4, canine IL17A-hFc-polyHis Mutant 1 (R71L, L73W, I82T) (canine).
T4 construct: Tested as 3-fold concentrated supernatant of transfected 293 cells; not shown: human Fc; poly-His tag
T4 chain: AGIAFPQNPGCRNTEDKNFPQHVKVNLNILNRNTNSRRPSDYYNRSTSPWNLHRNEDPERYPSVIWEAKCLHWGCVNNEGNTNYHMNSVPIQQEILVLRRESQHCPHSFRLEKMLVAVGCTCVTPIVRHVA
Nature of the experiment: Western blot of 3-fold concentrated 293 supernatants, 25 µL per lane, SDS-PAGE with or without DTT, PVDF, probed with Clone C. The procedure: (§1) Plasmid constructs containing nucleotide sequences encoding each of the canine IL17A-hFC-polyHis mutants were transiently transfected into 293 cells and the supernatants concentrated 3-fold. Each mutant was separated by SDS-PAGE (25 μL per lane) in the presence or absence of DTT and the proteins transferred to a PVDF membrane. The blot was probed using either Clone C antibody or anti-human IgG Fc (control).
In general terms: A western blot detects proteins with antibodies after separation by electrophoresis.

Experiment [3] addresses T5, canine IL17A-hFc-polyHis Mutant 5 (C-terminal deletion of amino acids 126-131).
T5 IL17A-hFc-polyHis fusion chain: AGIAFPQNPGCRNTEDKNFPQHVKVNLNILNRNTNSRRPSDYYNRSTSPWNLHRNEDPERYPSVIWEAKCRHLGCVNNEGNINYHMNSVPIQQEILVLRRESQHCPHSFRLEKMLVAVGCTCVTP
The description is as above. The procedure:
as §1

The target in experiment [4] is T6, canine IL17A-hFc-polyHis Mutant 3 (Q103R).
T6 IL17A-hFc-polyHis fusion chain: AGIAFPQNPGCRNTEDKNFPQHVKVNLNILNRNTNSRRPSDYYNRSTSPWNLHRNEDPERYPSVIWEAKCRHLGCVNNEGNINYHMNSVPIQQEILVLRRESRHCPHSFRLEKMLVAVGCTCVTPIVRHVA
Described as above. How it is done:
as §1

The target in experiment [5] is T7, canine IL17A-huFc (canine).
T7 construct: also called canine IL17A-hFc; not shown: human Fc on the C-terminal
T7 chain: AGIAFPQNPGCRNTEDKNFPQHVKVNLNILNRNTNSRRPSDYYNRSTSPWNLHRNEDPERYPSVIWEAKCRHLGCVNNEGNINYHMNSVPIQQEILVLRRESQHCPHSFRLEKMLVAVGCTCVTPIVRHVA
Nature of the experiment: ELISA; canine IL17A-huFc captured on anti-human Fc, detection goat anti-mouse Fc-HRP. The procedure:
Binding affinity of monoclonal antibodies A, B, C, D, and E to canine IL17A-huFc polypeptide was analyzed by ELISA. In the binding ELISA performed, the wells were coated with anti-human Fc antibody. Canine IL17A-huFc protein was then added to the wells. Antibody purified from each of the five hybridoma clones was added to the wells at various concentrations (19.35 nM, 6.45 nM, 2.15 nM, 0.75 nM, 0.24 nM, 0.08 nM, 0.03 nM, and 0 nM). Goat anti-mouse Fc-HRP was added and color was developed. […] Table 3 below provides the EC50 values associated with the binding ELISA for each of the clones.
(In general: ELISA stands for enzyme-linked immunosorbent assay.)

Experiment [6] addresses T7, canine IL17A-huFc. Nature of the experiment: BLI (Octet); canine IL17A-huFc captured on anti-human Fc sensors, antibody at 10 µg/mL. How it is done: Briefly, antibody concentrations were measured by protein A assay using Biosensor Octet (Forte Bio). Canine IL17A-huFc was captured to anti-human Fc bound biosensors. The association of anti-IL17A antibody from clones A, C, D, and E to the canine IL17A-huFc was monitored for 90 seconds. Dissociation was monitored for 600 seconds. A buffer only blank curve was subtracted to correct for any drift. The data were fit to a 1:1 binding model using ForteBio™ data analysis software to determine the kon, koff, and the Kd. The buffer for dilutions and all binding steps was: 20 mM phosphate, 150 mM NaCl, pH 7.2.

Bounds are passed on as bounds.

B1: mouse monoclonal antibody Clone C (antibody, mouse IgG1, V domains shown)
VH: EVQLVESGGGLVQPGGSLKLSCAASGFTFSSYGMSWVRQTPDKRLELVAIINSNGGSTYYPDSVKGRFTISRDNDKNSLYLQMSSLKSEDTAMYYCVRCHYDYERVFDYWGQGTTLTVSS
VL: DIQMTQSSSYLSVSLGGRVTITCKANDHINNWLAWYQQKPGNAPRLLISGSTSLETGVPSRFSGSGSGKDYTLSITSLQTEDVATYYCQQYWSTPFTFGSGTKLEIK
notes: Hybridoma antibody; also called hybridoma Clone C
In the case of B1, the results for the Kd with equine IL17A-polyHis, with canine IL17A-polyHis and with canine IL17A-huFc [6] were 0.13 nM, 7.9 nM and < 10 nM, respectively. For the same molecule, in experiment [1], the “EC50 (ng/mL), H1080 Cell Functional Assay (IL6 secretion)” value was found to be 7 ng/mL. The binding result in experiment [2], in experiment [3] and in experiment [4] was “binds” in each case. In the experiment with canine IL17A-huFc [5], this molecule returned an EC50 of 0.2 ng/mL.

Broadly, the Kd is the free concentration of one partner at which half of the binding sites on the other are occupied at equilibrium, for simple one-to-one binding. High values mean weaker binding, low ones tighter binding. One may read the EC50 as the concentration at which the effect is half-maximal. Read a high EC50 as lower potency in that assay.
